Measured values reported in US20130266567A1 (published 2013).
Several values for one entry are separate records, joined by “and”; a condition that tells them apart may be missing. Equal entries are not always repeated.

What was measured:
Human serum albumin [1] = target: T1, Human serum albumin (human, UniProt P02768 25-609); test: SPR, BIAcore 3000, serum albumin coupled to CM5 chip;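 further: Cross-reactivity of anti-serum albumin domain antibodies measured against human, cynomolgus monkey, rat and mouse serum albumin, binding kinetics giving Kd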
T1 construct: coupled to CM5 BIAcore chip; also called human SA; HSA
Method: (§1) Cross-reactivity of the AlbudAbs™ (ie, anti-serum albumin dAbs) was determined against human, Cynomolgus monkey (cyno), rat and mouse serum albumin using surface plasmon resonance (SPR). In this case, Biacore™ was used. Biacore™ 2000/3000 was used for the supernatant screens and determination of binding kinetic all of dAbs described herein. Biacore™ T100 was used for the determination of cross-reactivity of lead Vk and VH Albudabs to a wider range of species' SAs (12 in total). Protein samples were run on the T100 BIAcore as described for the BIAcore2000/3000 experiments. […] Where appropriate, a kinetic Langmuir 1:1 fitting model was used.

Rat serum albumin [2] = target: T2, Rat serum albumin (rat, UniProt P02770 25-608); test: as above
T2 construct: coupled to CM5 BIAcore chip; also called rat SA; RSA
Method: as §1

Cynomolgus serum albumin [3] = target: T3, Cynomolgus serum albumin (Cynomolgus monkey, UniProt A2V9Z4 25-608); test: as above
T3 construct: mature; purified native protein; coupled to CM5 BIAcore chip; also called cyno SA; CSA
Method: as §1

Mouse serum albumin [4] = target: T4, Mouse serum albumin (mouse, UniProt P07724 25-608); test: as above
T4 construct: mature; bought purified protein; coupled to CM5 BIAcore chip; also called mouse SA; MSA
Method: as §1

Human serum albumin [5] = target: T1, Human serum albumin; test: SPR, BIAcore T100, equilibrium KD
Method: as §1

Rat serum albumin [6] = target: T2, Rat serum albumin; test: SPR, BIAcore T100, equilibrium KD
Method: as §1

Cynomolgus serum albumin [7] = target: T3, Cynomolgus serum albumin; test: SPR, BIAcore T100, equilibrium KD
Method: as §1

Dog serum albumin = Dog serum albumin (dog, UniProt P49822 25-608); test: SPR, BIAcore T100, equilibrium KD
Method: as §1

Mouse serum albumin [8] = target: T4, Mouse serum albumin; test: SPR, BIAcore T100, equilibrium KD
Method: as §1

Marmoset serum albumin = Marmoset serum albumin (marmoset); test: SPR, BIAcore T100, equilibrium KD
Method: as §1

Sheep serum albumin = Sheep serum albumin (sheep, UniProt P14639 25-607); test: SPR, BIAcore T100, equilibrium KD
Method: as §1

Ferret serum albumin = Ferret serum albumin (ferret); test: SPR, BIAcore T100, equilibrium KD
Method: as §1

Pig serum albumin = Pig serum albumin (pig, UniProt P08835 25-607); test: SPR, BIAcore T100, equilibrium KD
Method: as §1

Mini Pig serum albumin = Mini Pig serum albumin (mini pig); test: SPR, BIAcore T100, equilibrium KD
Method: as §1

Rabbit serum albumin = Rabbit serum albumin (rabbit, UniProt P49065 25-608); test: SPR, BIAcore T100
Method: as §1

Human serum albumin [9] = target: T1, Human serum albumin; test: SPR, BIAcore 3000, serum albumin coupled to CM5 chip; second of two independent measurements on different protein batches
Human serum albumin [10] = target: T1, Human serum albumin; test: SPR, BIAcore 3000, serum albumin coupled to CM5 chip; first of two independent measurements on different protein batches
Method: as §1

Rat serum albumin [11] = target: T2, Rat serum albumin; test: SPR, BIAcore 3000, serum albumin coupled to CM5 chip; last of the independent measurements on different protein batches

| Binder | Kd (Human serum albumin [1]) | Kd (Rat serum albumin [2]) | Kd (Cynomolgus serum albumin [3]) | Kd (Mouse serum albumin [4]) | further results |
| --- | --- | --- | --- | --- | --- |
| DOM7r-36-2 (VHH, VH immunoglobulin single variable domain (dAb, AlbudAb), not a camelid VHH; tested with a myc tag; also called 7r36-2 (Parent); not shown: myc tag) VHH: EVQLLESGGGLVQPGGSLRLSCAASGFTFNHYTMGWVRQAPGKGREWVSLIHPSGTVTYYADSVKGRFTISRDNSKNTLYLQMNSLRAEDTAVYYCAKWSSRAFDYWGQGTLVTVSS | 190 nM and 360 nM and 305 nM and 385 nM | 467 nM and 330 nM and 244 nM and 229 nM | 800 nM and 815 nM and 628 nM and 1500 nM |  |  |
| DOM7r-36-107 (VHH, VH immunoglobulin single variable domain (dAb, AlbudAb), not a camelid VHH; tested with a myc tag; not shown: myc tag) VHH: EVQLLESGGGLVQPGGSLRLSCAASGFTFNHYTMGWVRQAPGKGREWVSLIHPSGTVTYYADSVKGRFTISRDNSKNTLYLQMNSLRAEDTAVYYCAKWEKKYFDYWGQGTLVTVSS | 83.4 nM and 44.5 nM | 97.3 nM and 209 nM | 127 nM | 466 nM | Kd (Human serum albumin [5]): 18.3 nM; Kd (Rat serum albumin [6]): 99.2 nM; Kd (Cynomolgus serum albumin [7]): 21.4 nM; Kd (Dog serum albumin): 719 nM; Kd (Mouse serum albumin [8]): 143 nM; Kd (Marmoset serum albumin): 111 nM; Kd (Sheep serum albumin): 637 nM; Kd (Ferret serum albumin): 740 nM; Kd (Pig serum albumin): 818 nM; Kd (Mini Pig serum albumin): 895 nM; binding result (Rabbit serum albumin): no binding (tested: dilution series from 5 uM down to 39 nM) |
| DOM7r-36-101 (VHH, VH immunoglobulin single variable domain (dAb, AlbudAb), not a camelid VHH; tested with a myc tag; not shown: myc tag) VHH: EVQLLESGGGLVQPGGSLRLSCAASGFTFNHYTMGWVRQAPGKGREWVSLIHPSGTVTYYADSVKGRFTISRDNSKNTLYLQMNSLRAEDTAVYYCAKWFLKSFDYWGQGTLVTVSS | 86 nM | 183 nM | 72 nM |  |  |
| DOM7r-36-100 (VHH, VH immunoglobulin single variable domain (dAb, AlbudAb), not a camelid VHH; tested with a myc tag; not shown: myc tag) VHH: EVQLLESGGGLVQPGGSLRLSCAASGFTFNHYTMGWVRQAPGKGREWVSLIHPSGTVTYYADSVKGRFTISRDNSKNTLYLQMNSLRAEDTAVYYCAKWERRTFDYWGQGTLVTVSS | 74 nM and 100 nM and 35 nM | 105 nM and 70 nM | 87 nM and 230 nM | 100 nM |  |
| DOM7r-36-105 (VHH, VH immunoglobulin single variable domain (dAb, AlbudAb), not a camelid VHH; tested with a myc tag; not shown: myc tag) VHH: EVQLLESGGGLVQPGGSLRLSCAASGFTFNHYTMGWVRQAPGKGREWVSLIHPSGTVTYYADSVKGRFTISRDNSKNTLYLQMNSLRAEDTAVYYCAKLGTKVFDYWGQGTLVTVSS | 284 nM and 313 nM | 170 nM |  |  |  |

Further lines, with some results ahead:

| Kd (Human serum albumin [1]) | Kd (Rat serum albumin [2]) | Kd (Cynomolgus serum albumin [3]) | Kd (Mouse serum albumin [4]) | Binder | further results |
| --- | --- | --- | --- | --- | --- |
| 200 nM and 95 nM | 40 nM |  |  | DOM7r-31-103 (VHH, VH immunoglobulin single variable domain (dAb, AlbudAb), not a camelid VHH; tested with a myc tag; not shown: myc tag) VHH: EVQLLESGGGLVQPGGSLRLSCTASGFTFRHYRMGWVRQAPGKGLEWVSWIRPDGTFTYYADSVKGRFTISRDNSKNTLYLQMNSLRAEDAAVYYCAKSYMSGTFDYWGQGTLVTVSS |  |
| 82 nM and 67 nM |  | 265 nM | 37.6 nM | DOM7r-36-108 (VHH, VH immunoglobulin single variable domain (dAb, AlbudAb), not a camelid VHH; tested with a myc tag; not shown: myc tag) VHH: EVQLLESGGGLVQPGGSLRLSCAASGFTFNHYTMGWVRQAPGKGREWVSLIHPSGTVTYYADSVKGRFTTSRDNSKNTLYLQMNSLRAEDTAVYYCAKLEGRSFDYWGQGTLVTVSS |  |
|  | 109 nM and 114 nM | 149 nM and 360 nM | 184 nM and 313 nM | DOM7r-36-104 (VHH, VH immunoglobulin single variable domain (dAb, AlbudAb), not a camelid VHH; tested with a myc tag; not shown: myc tag) VHH: EVQLLESGGGLVQPGGSLRLSCAASGFTFNHYTMGWVRQAPGKGREWVSLIHPSGTVTYYADSVKGRFTISRDNSKNTLYLQMNSLRAEDTAVYYCAKWATRGFDYWGQGTLVTVSS | Kd (Human serum albumin [9]): 9 nM; Kd (Human serum albumin [10]): 82 nM |
|  | 100 nM | 430 nM | 250 nM | DOM7r-36-102 (VHH, VH immunoglobulin single variable domain (dAb, AlbudAb), not a camelid VHH; tested with a myc tag; not shown: myc tag) VHH: EVQLLESGGGLVQPGGSLRLSCAASGFTFNHYTMGWVRQAPGKGREWVSLIHPSGTVTYYADSVKGRFTISRDNSKNTLYLQMNSLRAEDTAVYYCAKWFYRNFDYWGQGTLVTVSS |  |
| 209 nM and 124 nM | 75 nM | 840 nM and 1100 nM | 113 nM and 73 nM | DOM7r-36-106 (VHH, VH immunoglobulin single variable domain (dAb, AlbudAb), not a camelid VHH; tested with a myc tag; not shown: myc tag) VHH: EVQLLESGGGLVQPGGSLRLSCAASGFTFNHYTMGWVRQAPGKGREWVSLIHPSGTVTYYADSVKGRFTISRDNSKNTLYLQMNSLRAEDTAVYYCAKFRGRGFDYWGQGTLVTVSS | Kd (Rat serum albumin [11]): 42 nM |
| 62 nM and 65 nM | 100 nM and 57 nM | 94 nM | 270 nM | DOM7r-36-103 (VHH, VH immunoglobulin single variable domain (dAb, AlbudAb), not a camelid VHH; tested with a myc tag; not shown: myc tag) VHH: EVQLLESGGGLVQPGGSLRLSCAASGFTFNHYTMGWVRQAPGKGREWVSLIHPSGTVTYYADSVKGRFTTSRDNSKNTLYLQMNSLRAEDTAVYYCAKWDRKLFDHWGQGTLVTVSS |  |
